Results as given in the supplement of paper PMC7125110.
± gives the standard error. For some assays here: Variants at the floor of the assay were thinned out.

B1: glmS ribozyme (parent)
chain: AUAAAAGCGCCAGAACUACAGAAAUGUAGUUGACGAGGAGGAGGUUUAUCGAAUUUUCGGCGGAUGCCUCCAAA

How the values were obtained:
Settings in all cases: with glucosamine-6-phosphate
glucosamine-6-phosphate [1] = variants of: B1; test: kcat; higher = faster cleavage; RNA array
Method in brief: (§1)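 Barcoded ribozyme variants on sequenced MiSeq chips were transcribed in situ by E. coli RNA polymerase and followed at 37 °C through a hybridised Cy3 probe. Glucosamine-6-phosphate at 40 μM to 10 mM in HEPES/KCl/Mg(OAc)2 buffer was flowed in, and tiles were imaged over ~14 h. Signals were normalised to baseline and to non-cleaving reference variants, and per-tile medians were fit to one- or two-exponential decays to give kobs. Weighted Michaelis–Menten fits across concentrations gave kcat and KM.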

glucosamine-6-phosphate [2] = variants of: B1; test: KM; higher = weaker cofactor use; RNA array
Method in brief: as §1

glucosamine-6-phosphate [3] = variants of: B1; test: self-cleavage kobs at 40 uM GlcN6P; higher = faster cleavage; RNA array
Method in brief: as §1

glucosamine-6-phosphate [4] = variants of: B1; test: self-cleavage kobs at 640 uM GlcN6P; higher = faster cleavage; RNA array
Method in brief: as §1

glucosamine-6-phosphate [5] = variants of: B1; test: self-cleavage kobs at 10000 uM GlcN6P; higher = faster cleavage; RNA array
Method in brief: as §1

glucosamine-6-phosphate [6] = variants of: B1; test: self-cleavage kobs at 2500 uM GlcN6P; higher = faster cleavage; RNA array
Method in brief: as §1

glucosamine-6-phosphate [7] = variants of: B1; test: self-cleavage kobs at 160 uM GlcN6P; higher = faster cleavage; RNA array
Method in brief: as §1

| Variant | kcat (glucosamine-6-phosphate [1]) | KM (glucosamine-6-phosphate [2]) | self-cleavage kobs at 40 uM GlcN6P (glucosamine-6-phosphate [3]) | self-cleavage kobs at 640 uM GlcN6P (glucosamine-6-phosphate [4]) | self-cleavage kobs at 10000 uM GlcN6P (glucosamine-6-phosphate [5]) | self-cleavage kobs at 2500 uM GlcN6P (glucosamine-6-phosphate [6]) | self-cleavage kobs at 160 uM GlcN6P (glucosamine-6-phosphate [7]) |
| --- | --- | --- | --- | --- | --- | --- | --- |
| A12U U30A | 0.0401 ± 0.009 s⁻¹ | 1980 ± 540 µM | 0.000782 ± 0.00011 s⁻¹ | 0.0124 ± 0.0029 s⁻¹ | 0.0321 ± 0.007 s⁻¹ | – | – |
| G32A G40U | 0.00051 ± 0.0001 s⁻¹ | 3900 ± 1200 µM | – | 7.8e-05 ± 9.2e-06 s⁻¹ | 0.000401 ± 5.6e-05 s⁻¹ | 0.000169 ± 2.5e-05 s⁻¹ | – |
| C10G C70A | < 1e-05 s⁻¹ | – | – | – | < 1e-05 s⁻¹ | – | – |
| G51A C67A | 1.27e-05 ± 2.8e-06 s⁻¹ | – | – | – | – | – | – |
| A12C A14U C16U U46G | 3.1e-05 ± 6.8e-06 s⁻¹ | – | – | – | – | – | – |
| A53U U69A | 0.000102 ± 1.2e-05 s⁻¹ | – | 4.28e-05 ± 1.3e-05 s⁻¹ | 0.000146 ± 3.1e-05 s⁻¹ | 9.48e-05 ± 1.3e-05 s⁻¹ | 0.000103 ± 1.7e-05 s⁻¹ | 5.84e-05 ± 1.7e-05 s⁻¹ |
| A14C U57A | 0.00019 ± 1.7e-05 s⁻¹ | – | – | – | 9.25e-05 ± 2.2e-05 s⁻¹ | 3.61e-05 ± 1.6e-05 s⁻¹ | – |
| A15G C67A | 0.00627 ± 0.0024 s⁻¹ | – | 0.000534 ± 0.00011 s⁻¹ | 0.00406 ± 0.0007 s⁻¹ | 0.00896 ± 0.0018 s⁻¹ | 0.00376 ± 0.00071 s⁻¹ | 0.000961 ± 0.00011 s⁻¹ |
| A14C U69C | 0.00147 ± 0.00041 s⁻¹ | 2100 ± 820 µM | 5.59e-05 ± 1.2e-05 s⁻¹ | 0.000344 ± 6.1e-05 s⁻¹ | 0.00131 ± 0.0002 s⁻¹ | 0.000686 ± 0.00015 s⁻¹ | 9.64e-05 ± 1.4e-05 s⁻¹ |
| A39U U54G | 0.0173 ± 0.0074 s⁻¹ | – | 0.000704 ± 0.00014 s⁻¹ | 0.00453 ± 0.001 s⁻¹ | 0.018 ± 0.0044 s⁻¹ | – | 0.00169 ± 0.00043 s⁻¹ |
| G13C U55C | 9.82e-05 ± 8.2e-06 s⁻¹ | 1500 ± 410 µM | < 1e-05 s⁻¹ | 3.6e-05 ± 1.6e-05 s⁻¹ | 8.8e-05 ± 1.5e-05 s⁻¹ | 5.66e-05 ± 1.3e-05 s⁻¹ | – |
| G29A C58A | 0.000173 ± 2.2e-06 s⁻¹ | 875 ± 32 µM | – | 7.35e-05 ± 1.6e-05 s⁻¹ | 0.00016 ± 3e-05 s⁻¹ | 0.000126 ± 2.9e-05 s⁻¹ | – |
| A14C A53C | 0.00124 ± 0.00016 s⁻¹ | 2550 ± 490 µM | 2.58e-05 ± 1.2e-05 s⁻¹ | 0.000267 ± 3.4e-05 s⁻¹ | 0.000924 ± 0.00013 s⁻¹ | 0.000659 ± 7.9e-05 s⁻¹ | 6.39e-05 ± 1e-05 s⁻¹ |
| A53C | 0.0162 ± 0.0036 s⁻¹ | 2870 ± 790 µM | 0.000261 ± 5.6e-06 s⁻¹ | 0.00273 ± 6.9e-05 s⁻¹ | 0.0126 ± 0.00041 s⁻¹ | 0.00834 ± 0.0003 s⁻¹ | 0.000713 ± 2.4e-05 s⁻¹ |
| C34A C67G | < 1e-05 s⁻¹ | – | < 1e-05 s⁻¹ | < 1e-05 s⁻¹ | – | < 1e-05 s⁻¹ | < 1e-05 s⁻¹ |
